The text below walks through data of article PMC10269845, “Hijacking of Host Plasminogen by Mesomycoplasma (Mycoplasma) hyopneumoniae via GAPDH: an Important Virulence Mechanism To Promote Adhesion and Extracellular Matrix Degradation” (Microbiology Spectrum, 2023).

The term Kd denotes the equilibrium constant for the complex coming apart. A high value points to weaker binding.

The experiment concerns the target plasminogen (UniProt P00747 20-810). In words: SPR. The note with it: both partners purified.

Chain of plasminogen (P00747 20-810): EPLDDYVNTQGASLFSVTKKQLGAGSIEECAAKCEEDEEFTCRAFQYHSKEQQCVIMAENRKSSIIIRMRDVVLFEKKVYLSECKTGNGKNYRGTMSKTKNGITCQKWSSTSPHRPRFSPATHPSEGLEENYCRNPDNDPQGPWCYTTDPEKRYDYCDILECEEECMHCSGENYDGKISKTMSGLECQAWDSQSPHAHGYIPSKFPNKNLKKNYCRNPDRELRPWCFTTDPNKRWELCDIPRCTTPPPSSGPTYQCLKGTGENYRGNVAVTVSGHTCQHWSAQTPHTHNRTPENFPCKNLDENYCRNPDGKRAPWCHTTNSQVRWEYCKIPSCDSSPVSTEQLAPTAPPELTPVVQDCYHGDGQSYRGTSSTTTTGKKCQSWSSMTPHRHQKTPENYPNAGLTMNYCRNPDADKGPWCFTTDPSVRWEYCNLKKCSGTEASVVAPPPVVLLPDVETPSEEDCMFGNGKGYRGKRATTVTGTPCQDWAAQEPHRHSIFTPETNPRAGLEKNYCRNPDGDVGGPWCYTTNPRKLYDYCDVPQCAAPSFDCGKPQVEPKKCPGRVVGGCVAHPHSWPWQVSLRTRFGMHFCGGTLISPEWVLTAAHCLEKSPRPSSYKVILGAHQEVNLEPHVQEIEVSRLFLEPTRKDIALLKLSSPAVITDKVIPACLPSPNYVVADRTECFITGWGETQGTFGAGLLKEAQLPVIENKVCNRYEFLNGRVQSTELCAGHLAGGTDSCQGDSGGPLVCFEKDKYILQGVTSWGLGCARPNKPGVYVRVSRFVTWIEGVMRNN

B1: Recombinant glyceraldehyde-3-phosphate dehydrogenase (GAPDH) of Mesomycoplasma (Mycoplasma) hyopneumoniae strain 168 (enzyme)
chain: MKKIAINGFGRIGRLALRRLFEVNDENLQVVAINDLTDASVLAHLFKYDSAHGKFNGEVEVLKDNGKNYLKIKGQKILVLSERDPKSLPWGQLGIDLVVECTGFFASKSGASQHLEAGAKKVIISAPAGNDVKTIVYNVNCDTITEDDRILSSASCTTNALAPLVNALDKEFGINHGFMTTIHAYTADQRLQDAPHGDLRRARAAGVNLVPSSTGAAKAIGLVVPSLTGKLDGIAIRVPVITGSFVDLSVELKSNPSIEEINQKMREYANESFAYCDEPIVSSDIIGDRHGSIFDATLTKYIEANGKRLYKLYTWYDNEYSFVSQFVRVIRDFVQK
notes: also called rGAPDH; source: E. coli BL21(DE3), pET-32a, purified (Ni resin FF)
In turn, B1 showed a Kd of 376 nM.
